Among the data in article PMC3401385 (Cell Reports, 2012) are Kd values, retold here.

Experiment [1] concerns the target T1, eIF2β K2K3 (Saccharomyces cerevisiae, UniProt P09064).
T1 chain: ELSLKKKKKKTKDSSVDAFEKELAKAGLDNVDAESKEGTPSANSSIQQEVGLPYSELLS
Put plainly: ITC.

For experiment [2], the target named is human eIF5-CTD (carboxyl-terminal domain of eukaryotic initiation factor 5), wild type (human, UniProt P55010 225-407). Put plainly: ITC.
Experiment [3] concerns the target T2, eIF2 ternary complex (Saccharomyces cerevisiae, UniProt P20459).
T2 chain 1: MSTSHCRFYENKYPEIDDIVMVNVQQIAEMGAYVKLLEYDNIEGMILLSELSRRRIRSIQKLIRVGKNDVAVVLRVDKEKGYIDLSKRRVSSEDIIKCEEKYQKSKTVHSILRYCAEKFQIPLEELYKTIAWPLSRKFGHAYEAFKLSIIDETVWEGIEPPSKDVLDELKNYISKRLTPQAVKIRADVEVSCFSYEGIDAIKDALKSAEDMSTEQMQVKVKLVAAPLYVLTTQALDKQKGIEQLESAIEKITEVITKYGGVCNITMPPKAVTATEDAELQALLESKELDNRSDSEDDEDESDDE
T2 chain 2: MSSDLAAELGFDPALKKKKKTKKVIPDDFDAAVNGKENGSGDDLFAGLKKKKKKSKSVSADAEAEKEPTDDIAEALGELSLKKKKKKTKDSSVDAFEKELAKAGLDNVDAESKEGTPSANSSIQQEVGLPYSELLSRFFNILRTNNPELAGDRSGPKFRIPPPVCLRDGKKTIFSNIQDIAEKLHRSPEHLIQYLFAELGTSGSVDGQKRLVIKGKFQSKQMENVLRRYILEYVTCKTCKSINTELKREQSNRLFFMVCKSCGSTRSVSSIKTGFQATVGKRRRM
T2 chain 3: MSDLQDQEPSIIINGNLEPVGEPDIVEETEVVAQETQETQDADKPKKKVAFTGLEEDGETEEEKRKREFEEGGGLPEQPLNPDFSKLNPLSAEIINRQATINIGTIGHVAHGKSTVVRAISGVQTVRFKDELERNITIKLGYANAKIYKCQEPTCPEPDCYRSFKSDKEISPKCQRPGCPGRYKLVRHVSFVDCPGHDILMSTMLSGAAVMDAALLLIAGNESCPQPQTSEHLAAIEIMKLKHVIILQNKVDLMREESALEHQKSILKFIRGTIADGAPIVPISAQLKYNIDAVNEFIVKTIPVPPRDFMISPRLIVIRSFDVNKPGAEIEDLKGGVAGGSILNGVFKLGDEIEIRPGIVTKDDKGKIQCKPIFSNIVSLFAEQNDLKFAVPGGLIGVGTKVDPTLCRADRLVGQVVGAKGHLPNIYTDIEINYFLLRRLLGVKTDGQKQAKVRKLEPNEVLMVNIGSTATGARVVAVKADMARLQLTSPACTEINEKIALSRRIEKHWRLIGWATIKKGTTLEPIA

Chain of human eIF5-CTD (carboxyl-terminal domain of eukaryotic initiation factor 5), wild type (P55010 225-407): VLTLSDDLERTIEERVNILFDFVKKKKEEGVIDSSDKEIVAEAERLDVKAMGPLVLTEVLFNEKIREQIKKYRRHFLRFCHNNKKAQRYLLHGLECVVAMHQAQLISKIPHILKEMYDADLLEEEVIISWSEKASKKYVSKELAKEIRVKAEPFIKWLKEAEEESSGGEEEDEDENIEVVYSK

B1: eIF5 CTD (protein)
chain: VNSELTQLDEYGEWILEQAGEDKENLPSDVELYKKAAELDVLNDPKIGCVLAQCLFDEDIVNEIAEHNAFFTKILVTPEYEKNFMGGIERFLGLEHKDLIPLLPKILVQLYNNDIISEEEIMRFGTKSSKKFVPKEVSKKVRRAAKPFITWLETAESDDDEEDDE
B1: the dissociation constant (Kd) in experiment [1] was ~4 µM.

B2: eIF2β-K2K3 (eIF2β residues 53-135, with the K2 and K3 lysine boxes) (domain or fragment, UniProt P20042 53-135, looked up)
chain: DLEADEEDTRKKDASDDLDDLNFFNQKKKKKKTKKIFDIDEAEEGVKDLKIESDVQEPTEPEDDLDIMLGNKKKKKKNVKFPD
As to B2, the Kd in experiment [2] is ~4 µM.

B3: eIF5 (protein)
chain: MSINICRDNHDPFYRYKMPPIQAKVEGRGNGIKTAVLNVADISHALNRPAPYIVKYFGFELGAQTSISVDKDRYLVNGVHEPAKLQDVLDGFINKFVLCGSCKNPETEIIITKDNDLVRDCKACGKRTPMDLRHKLSSFILKNPPDSVSGSKKKKKAATASANVRGGGLSISDIAQGKSQNAPSDGTGSSTPQHHDEDEDELSRQIKAAASTLEDIEVKDDEWAVDMSEEAIRARAKELEVNSELTQLDEYGEWILEQAGEDKENLPSDVELYKKAAELDVLNDPKIGCVLAQCLFDEDIVNEIAEHNAFFTKILVTPEYEKNFMGGIERFLGLEHKDLIPLLPKILVQLYNNDIISEEEIMRFGTKSSKKFVPKEVSKKVRRAAKPFITWLETAESDDDEEDDE
Turning to B3, the Kd in experiment [3] worked out at 0.1 µM.
